Laboratory results: paper PMC2171490 (The Journal of Cell Biology, 2005)

B1: ECFP–SUV39H1-ΔSET (domain or fragment, human, UniProt O43463-1 3-249, looked up)
chain: ENLKGCSVCCKSSWNQLQDLCRLAKLSCPALGISKRNLYDFEVEYLCDYKKIREQEYYLVKWRGYPDSESTWEPRQNLKCVRILKQFHKDLERELLRRHHRSKTPRHLDPSLANYLVQKAKQRRALRRWEQELNAKRSHLGRITVENEVDLDGPPRAFVYINEYRVGEGITLNQVAVGCECQDCLWAPTGGCCPGASLHKFAYNDQGQVRLRAGLPIYECNSRCRCGYDCPNRVVQKGIRYDLCIFR
B2: ECFP–SUV39H1-Nchromo (domain or fragment, human, UniProt O43463-1 3-118, looked up)
chain: ENLKGCSVCCKSSWNQLQDLCRLAKLSCPALGISKRNLYDFEVEYLCDYKKIREQEYYLVKWRGYPDSESTWEPRQNLKCVRILKQFHKDLERELLRRHHRSKTPRHLDPSLANYL
B3: ECFP-SUV39H1 (enzyme, human, UniProt O43463-1 1-412, looked up)
chain: MAENLKGCSVCCKSSWNQLQDLCRLAKLSCPALGISKRNLYDFEVEYLCDYKKIREQEYYLVKWRGYPDSESTWEPRQNLKCVRILKQFHKDLERELLRRHHRSKTPRHLDPSLANYLVQKAKQRRALRRWEQELNAKRSHLGRITVENEVDLDGPPRAFVYINEYRVGEGITLNQVAVGCECQDCLWAPTGGCCPGASLHKFAYNDQGQVRLRAGLPIYECNSRCRCGYDCPNRVVQKGIRYDLCIFRTDDGRGWGVRTLEKIRKNSFVMEYVGEIITSEEAERRGQIYDRQGATYLFDLDYVEDVYTVDAAYYGNISHFVNHSCDPNLQVYNVFIDNLDERLPRIAFFATRTIRAGEELTFDYNMQVDPVDMESTRMDSNFGLAGLPGSPKKRVRIECKCGTESCRKYLF

Target: EYFP-HP1β (UniProt P83916 1-185)
Sequence (P83916 whole entry): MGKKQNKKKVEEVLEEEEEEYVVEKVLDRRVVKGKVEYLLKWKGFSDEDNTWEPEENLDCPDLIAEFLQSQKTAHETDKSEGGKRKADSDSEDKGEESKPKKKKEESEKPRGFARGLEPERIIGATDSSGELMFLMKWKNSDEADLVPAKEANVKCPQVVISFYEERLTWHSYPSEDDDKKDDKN
Experiment: FRET or BRET

Binder	mean donor fluorescence lifetime τ Mod	mean donor fluorescence lifetime τφ
B1	2.7 ns	2.1 ns
B2	2.8 ns	2.2 ns
B3	2.9 ns	2.2 ns
